Percent coupling (coat protein molecules linked to Pfs25-SpyTag) and stoichiometry N data for two substances are collected here from article PMC5476561.

The target in one test is SpyCatcher-AP205. Briefly: reducing SDS-PAGE of the covalent conjugate.
The target of test [1] is Pfs25-IMX313-CTag (Plasmodium falciparum) (UniProt P13829). Briefly: non-reducing SDS-PAGE; Coomassie-stained gel, non-reduced against reduced sample.
Test [2] shares this target. Briefly: SEC. For orientation: Size exclusion chromatography separates by hydrodynamic size, large species first.

Turning to “Pfs25-SpyTag-CTag (from UniProt P13829 22-193)”, the percent coupling (coat protein molecules linked to Pfs25-SpyTag) with SpyCatcher-AP205 was found to be 100%.

By stoichiometry N is commonly meant the number of molecules, sites or subunits per partner or assembly. In the case of “Pfs25-IMX313-CTag (from UniProt P13829 22-193)”, the stoichiometry N in test [1] and in test [2] was 7 in each case.
